In publication PMC11257990, “Noncanonical assembly, neddylation and chimeric cullin–RING/RBR ubiquitylation by the 1.8 MDa CUL9 E3 ligase complex” (Nature Structural & Molecular Biology, 2024):

Target: T1, UBE2L3 (human, UniProt P68036 1-154)
T1 construct: UBE2L3, human; source: E. coli Rosetta 2 (DE3), purified (glutathione sepharose, TEV cleavage, ion exchange, SEC)
Assay: ITC; E2 (300–500 μM) in the syringe, CUL9^ARIH-RBR (25 μM) in the cell; 25 °C; 25 mM HEPES pH 7.5, 150 mM NaCl, 0.5 mM TCEP; 19 × 2 μl injections; single-site model
Conditions: both partners purified

T1 sequence (P68036 whole entry): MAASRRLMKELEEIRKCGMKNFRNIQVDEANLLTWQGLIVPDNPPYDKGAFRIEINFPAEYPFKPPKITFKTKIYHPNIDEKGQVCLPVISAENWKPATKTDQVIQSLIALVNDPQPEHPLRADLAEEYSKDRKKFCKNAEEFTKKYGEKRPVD

B1: CUL9^ARIH-RBR (domain or fragment, human, UniProt Q8IWT3 1979-2517, looked up)
chain: SPEAVATLASLQLPAGRTMSPQEVEGLMKQTVRQVQETLNLEPDVAQHLLAHSHWGAEQLLQSYSEDPEPLLLAAGLCVHQAQAVPVRPDHCPVCVSPLGCDDDLPSLCCMHYCCKSCWNEYLTTRIEQNLVLNCTCPIADCPAQPTGAFIRAIVSSPEVISKYEKALLRGYVESCSNLTWCTNPQGCDRILCRQGLGCGTTCSKCGWASCFNCSFPEAHYPASCGHMSQWVDDGGYYDGMSVEAQSKHLAKLISKRCPSCQAPIEKNEGCLHMTCAKCNHGFCWRCLKSWKPNHKDYYNCSAMVSKAARQEKRFQDYNERCTFHHQAREFAVNLRNRVSAIHEVPPPRSFTFLNDACQGLEQARKVLAYACVYSFYSQDAEYMDVVEQQTENLELHTNALQILLEETLLRCRDLASSLRLLRADCLSTGMELLRRIQERLLAILQHSAQDFRVGLQSPSVEAWEAKGPNMPGSQPQASSGPEAEEEEEDDEDDVPEWQQDEFDEELDNDSFSYDESENLDQETFFFGDEEEDEDEAYD
notes: CUL9, human, ARIH-RBR element, residues 1979-2517; also called CUL9 RBR element; source: HEK293S, baculovirus infection, without RBX1, purified; not shown: TwinStrep, N-terminal, cleaved
B1: binds.
